B1: CDC25B (parent)
chain: FVDILESDLKDDDAVPPGMESLIS

Variants of: B1
Assay: protein stability index of a GFP-peptide fusion (GPS, HEK-293T) (PSI 1-6); higher = more stable
Conditions: c terminus: a fixed tail appended
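Also: lentivirally expressed fusions sorted by FACS into six bins by GFP to DsRed ratio, PSI derived from sequencing read proportions per bin multiplied by bin number.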

Row | Variant | protein stability index
1 | FVDILESDLKDDDAVYPGMESLIS [P16Y] | 2.82
2 | FVDILESDLKDDDAVLPGMESLIS [P16L] | 2.76
3 | FVDILESDLKDDDAVIPGMESLIS [P16I] | 2.44
4 | FVDILESDLKDDDAVTPGMESLIS [P16T] | 2.98
5 | FVDILESDLKDDDAVHPGMESLIS [P16H] | 3.14
6 | FVDILESDLKDDDAVGPGMESLIS [P16G] | 3.02
7 | FVDILESDLKDDDAVFPGMESLIS [P16F] | 2.06
8 | FVDILESDLKDDDAVAPGMESLIS [P16A] | 2.98
9 | FVDILESDLKDDDAVQPGMESLIS [P16Q] | 2.79
10 | FVDILESDLKDDDAVDPGMESLIS [P16D] | 3.62
11 | FVDILESDLKDDDAVVPGMESLIS [P16V] | 3.07
12 | FVDILESDLKDDDAVMPGMESLIS [P16M] | 2.6
13 | FVDILESDLKDDDAVWPGMESLIS [P16W] | 2.52
14 | FVDILESDLKDDDAVSPGMESLIS [P16S] | 2.88
15 | FVDILESDLKDDDAVKPGMESLIS [P16K] | 3
16 | FVDILESDLKDDDAVNPGMESLIS [P16N] | 3.23
17 | FVDILESDLKDDDAVCPGMESLIS [P16C] | 2.68
18 | FVDILESDLKDDDAVEPGMESLIS [P16E] | 3.04
19 | FVDILESDLKDDDAVRPGMESLIS [P16R] | 2.59
20 | FVDILESDLKDDDAVPPGMESLHS [I23H] | 3.56
21 | FVDILESDLKDDDAVPPGMESLGS [I23G] | 3.03
22 | FVDILESDLKDDDAVPPGMESLFS [I23F] | 2.48
23 | FVDILESDLKDDDAVPPGMESLES [I23E] | 3.57
24 | FVDILESDLKDDDAVPPGMESLDS [I23D] | 3.7

Row | Variant | protein stability index
25 | FVDILESDLKDDDAVPPGMESLLS [I23L] | 3.07
26 | FVDILESDLKDDDAVPPGMESLMS [I23M] | 3.02
27 | FVDILESDLKDDDAVPPGMESLAS [I23A] | 3.54
28 | FVDILESDLKDDDAVPPGMESLCS [I23C] | 2.93
29 | FVDILESDLKDDDAVPPGMESLNS [I23N] | 2.6
30 | FVDILESDLKDDDAVPPGMESLKS [I23K] | 2.83
31 | FVDILESDLKDDDALPPGMESLIS [V15L] | 2.78
32 | FVDILESDLKDDDATPPGMESLIS [V15T] | 2.92
33 | FVDILESDLKDDDANPPGMESLIS [V15N] | 3.27
34 | FVDILESDLKDDDASPPGMESLIS [V15S] | 3.32
35 | FVDILESDLKDDDAHPPGMESLIS [V15H] | 3.04
36 | FVDILESDLKDDDAIPPGMESLIS [V15I] | 3
37 | FVDILESDLKDDDAQPPGMESLIS [V15Q] | 2.87
38 | FVDILESDLKDDDAMPPGMESLIS [V15M] | 3.02
39 | FVDILESDLKDDDACPPGMESLIS [V15C] | 2.88
40 | FVDILESDLKDDDAYPPGMESLIS [V15Y] | 3.1
41 | FVDILESDLKDDDAFPPGMESLIS [V15F] | 2.39
42 | FVDILESDLKDDDADPPGMESLIS [V15D] | 3.11
43 | FVDILESDLKDDDAGPPGMESLIS [V15G] | 3.19
44 | FVDILESDLKDDDARPPGMESLIS [V15R] | 2.69
45 | FVDILESDLKDDDAWPPGMESLIS [V15W] | 2.69
46 | FVDILESDLKDDDAEPPGMESLIS [V15E] | 3.11
47 | FVDILESDLKDDDAAPPGMESLIS [V15A] | 2.78
48 | FVDILESDLKDDDAKPPGMESLIS [V15K] | 2.96

Row | Variant | protein stability index
49 | FVDILESDLKDDDAVPQGMESLIS [P17Q] | 3.2
50 | FVDILESDLKDDDAVPEGMESLIS [P17E] | 3.6
51 | FVDILESDLKDDDAVPTGMESLIS [P17T] | 3.51
52 | FVDILESDLKDDDAVPRGMESLIS [P17R] | 2.19
53 | FVDILESDLKDDDAVPNGMESLIS [P17N] | 2.66
54 | FVDILESDLKDDDAVPSGMESLIS [P17S] | 2.72
55 | FVDILESDLKDDDAVPKGMESLIS [P17K] | 2.45
56 | FVDILESDLKDDDAVPHGMESLIS [P17H] | 2.61
57 | FVDILESDLKDDDAVPWGMESLIS [P17W] | 1.81
58 | FVDILESDLKDDDAVPVGMESLIS [P17V] | 2.27
59 | FVDILESDLKDDDAVPIGMESLIS [P17I] | 2.45
60 | FVDILESDLKDDDAVPMGMESLIS [P17M] | 2.69
61 | FVDILESDLKDDDAVPYGMESLIS [P17Y] | 2.71
62 | FVDILESDLKDDDAVPDGMESLIS [P17D] | 3.2
63 | FVDILESDLKDDDAVPGGMESLIS [P17G] | 3.25
64 | FVDILESDLKDDDAVPCGMESLIS [P17C] | 2.58
65 | FVDILESDLKDDDAVPAGMESLIS [P17A] | 2.95
66 | FVDILESDLKDDDAVPLGMESLIS [P17L] | 2.43
67 | FVDILESDLKDDDAVPFGMESLIS [P17F] | 2.21
68 | FVDILESDLKDDDAVPPHMESLIS [G18H] | 3.11
69 | FVDILESDLKDDDAVPPAMESLIS [G18A] | 3.03
70 | FVDILESDLKDDDAVPPDMESLIS [G18D] | 3.29
71 | FVDILESDLKDDDAVPPTMESLIS [G18T] | 3.28
72 | FVDILESDLKDDDAVPPRMESLIS [G18R] | 2.87

Row | Variant | protein stability index
73 | FVDILESDLKDDDAVPPYMESLIS [G18Y] | 2.65
74 | FVDILESDLKDDDAVPPQMESLIS [G18Q] | 2.86
75 | FVDILESDLKDDDAVPPLMESLIS [G18L] | 3.51
76 | FVDILESDLKDDDAVPPKMESLIS [G18K] | 2.8
77 | FVDILESDLKDDDAVPPWMESLIS [G18W] | 2.31
78 | FVDILESDLKDDDAVPPIMESLIS [G18I] | 2.32
79 | FVDILESDLKDDDAVPPEMESLIS [G18E] | 3.39
80 | FVDILESDLKDDDAVPPMMESLIS [G18M] | 2.6
81 | FVDILESDLKDDDAVPPFMESLIS [G18F] | 2.26
82 | FVDILESDLKDDDAVPPSMESLIS [G18S] | 3.06
83 | FVDILESDLKDDDAVPPNMESLIS [G18N] | 3.23
84 | FVDILESDLKDDDAVPPCMESLIS [G18C] | 2.6
85 | FVDILESDLKDDDAVPPVMESLIS [G18V] | 2.87
86 | FVDILESDLKDDDAVPPPMESLIS [G18P] | 3.18
87 | FVDILESDLKDDDCVPPGMESLIS [A14C] | 2.86
88 | FVDILESDLKDDDKVPPGMESLIS [A14K] | 2.96
89 | FVDILESDLKDDDPVPPGMESLIS [A14P] | 3.15
90 | FVDILESDLKDDDDVPPGMESLIS [A14D] | 3.48
91 | FVDILESDLKDDDSVPPGMESLIS [A14S] | 3.24
92 | FVDILESDLKDDDRVPPGMESLIS [A14R] | 2.75
93 | FVDILESDLKDDDEVPPGMESLIS [A14E] | 3.05
94 | FVDILESDLKDDDYVPPGMESLIS [A14Y] | 2.49

— the supplement of paper PMC10567573
